Assay results: patent US20130344053A1, “Methods of Modifying Insulin Signaling Using Biliverdin Reductase (BVR) and BVR Derived Peptides” (University of Rochester, priority 2010, published 2013)
Where a chain is given by its changes, count along the chain named.

What was measured:
Assay type in all cases: biochemical
[1] = target: T1, insulin receptor kinase (IRK) (Homo sapiens, UniProt P06213); assay: BVR phosphorylation by the insulin receptor tyrosine kinase (IRK); details: for reduction of extent of BVR phosphorylation by IRK compared with wtBVR: tyrosine point mutant as IRK substrate, 2 h at 30° C.; for BVR phosphorylation by IRK (mutant as substrate): tyrosine point or double mutant as IRK substrate
T1 construct: GST-hBVR fusion protein and the 48 kDa cytoplasmic domain of the β-subunit of IRK; purchased Biomol International (Plymouth, Pa.)
T1 sequence (P06213 980-1382 limits assumed): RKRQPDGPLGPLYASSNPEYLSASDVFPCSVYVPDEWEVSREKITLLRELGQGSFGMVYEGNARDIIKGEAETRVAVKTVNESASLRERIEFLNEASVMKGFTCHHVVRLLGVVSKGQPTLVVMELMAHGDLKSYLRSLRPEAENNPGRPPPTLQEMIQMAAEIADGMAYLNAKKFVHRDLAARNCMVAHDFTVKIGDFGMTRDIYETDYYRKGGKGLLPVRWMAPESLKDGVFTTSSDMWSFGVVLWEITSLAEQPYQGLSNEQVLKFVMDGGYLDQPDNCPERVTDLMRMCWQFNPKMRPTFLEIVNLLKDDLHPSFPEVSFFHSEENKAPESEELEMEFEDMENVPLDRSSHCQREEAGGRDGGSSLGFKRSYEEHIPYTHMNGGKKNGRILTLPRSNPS
Experimental: FIGS. 7A-B illustrate BVR as a substrate for insulin receptor kinase. […] 10 μg purified wtBVR was incubated in 100 μl kinase assay buffer (pH 8.0) containing 0.1 μg IRK, 10 μM ATP, and 20 μCi [^32P]-ATP at 25° C. up to 4 h. The reaction was terminated by the addition of Laemmli buffer at different points of time as indicated. Samples were separated using 8% SDS-PAGE gel and transferred onto PVDF filter, and phosphorylated protein bands were visualized by autoradiography. […] From left to right lane 1, wtBVR plus IRK in the presence of 50 mM EDTA (pH 8.0); lane 2, wtBVR plus IRK; lane 3, wtBVR in the absence of IRK. The reaction mixtures were subjected to SDS-PAGE electrophoresis and transferred onto a polyvinylidene fluoride (“PVDF”) filter. The blot was immuno-stained with anti-phosphotyrosine antibodies and ECL detection system was used to visualize phosphorylated tyrosines. […] In FIG. 8A the Y^198 residue of BVR is phosphorylated by IRK. Purified wtBVR and Y^198 mutant BVR were incubated with IRK at 30° C. for 2 h. Samples were subjected to SDS-PAGE electrophoresis and processed as described in FIG. 8B. FIG. 8B is a time course of Y^198 mutant BVR phosphorylation by IRK. A purified preparation of human BVR that carried Y^198 mutation was incubated with IRK for up to 3 h as described in FIG. 7A. Samples taken at the indicated time-points were analyzed for detection of phosphorylated proteins as above. […] Subsequently, samples were subjected to SDS-PAGE, stained with Coomassie blue and visualized bands were excised and used for measurement of radioactive content. The experiments were repeated three times. […] The indicated double mutants of BVR were used as substrates for IRK and analysis was carried out as in FIG. 8A. FIGS. 10A-B illustrate that autophosphorylation of BVR is an Mn^+2 dependant kinase reaction. […] The effects of different metal ions (30 mM MnCl2, 20 mM MgCl2, 20 mM CaCl2, 20 mM Zn acetate) and their combinations were analyzed as indicated in the text. […] The reactions were carried out in HEPES buffer (pH 8.0) in the presence of 20 mM MgCl2 as described in the Examples. Phosphorylation of BVR by IRK was examined using GST-hBVR fusion protein and the 48 kDa cytoplasmic domain of the β-subunit of IRK. BVR (5 μg) was incubated in 50 μl of IRK kinase buffer containing 50 mM HEPES (pH 8.0), 20 mM MgCl2, 1 mM DTT in the presence of 0.05 μg IRK and 10 μM ATP labeled with 10 μCi [γ-^32P]-ATP. The reaction was started with the addition of labeled ATP and incubated for 2-4 h. Reactions were terminated by addition of Laemmli sample buffer and boiled for 3 min. Samples were subjected to 8% SDS-PAGE and transferred to PVDF membranes for autoradiography.

BVR = target: T2, BVR (Homo sapiens, UniProt P53004, A154S/E160D/G155D); assay: Phosphorylation of IRS-1 peptides by BVR; details: peptide as substrate for BVR kinase
T2 construct: made in house; host or cells: E. coli (pGEX 4T-2/hBVR)
T2 sequence (P53004 3-296 A154S/G155D/E160D): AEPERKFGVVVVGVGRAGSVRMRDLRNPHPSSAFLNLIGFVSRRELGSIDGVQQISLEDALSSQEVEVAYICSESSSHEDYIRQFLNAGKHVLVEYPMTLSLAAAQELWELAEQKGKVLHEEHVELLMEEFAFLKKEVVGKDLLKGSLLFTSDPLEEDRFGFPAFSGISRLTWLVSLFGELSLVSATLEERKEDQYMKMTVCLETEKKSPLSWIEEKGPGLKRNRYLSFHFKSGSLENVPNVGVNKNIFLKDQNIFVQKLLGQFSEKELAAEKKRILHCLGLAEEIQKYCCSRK
Experimental: (§1) To detect autophosphorylation of BVR, GST-hBVR of wild type (wt) and mutant variants were incubated in 50 mM HEPES buffer (pH 8.4) in the presence of 30 mM MnCl2 and 1 mM DTT for 2 h at 30° C. The reaction was started with the addition of 10 μM ATP labeled with 10 μCi [γ-^32P]-ATP and was stopped with the addition of Laemmli sample buffer. Samples were boiled for 3 min and applied to a 8% SDS-PAGE gels, transferred to a PVDF membrane, and then visualized by autoradiography. To measure kinase activity, GST-BVR (5 μg) was incubated in 5 μl kinase buffer containing 50 mM HEPES buffer (pH 8.4), 20 mM MgCl2, 30 mM MnCl2, 1 mM DTT and 10 μM ATP labeled with 10 μCi [γ-^32P]-ATP in the presence of 5 μg substrates: IRS-1 or Raytide or poly glu/tyr (4:1) for 2 h at 30° C. The reaction was started with the addition of ATP and terminated by adding 120 μl 10% H3PO4. 100 μl aliquots were directly transferred to P81 Whatman filters which were subsequently washed extensively in 0.75% phosphoric acid at room temperature. Finally, the filters were submerged in acetone for 5 min, dried, and retained counts were measured using a Beckman LS 6500 liquid scintillation counter (Beckman Coulter, Fullerton, Calif.).
The following experiments were conducted to determine whether IRS is a substrate for serine kinase activity of BVR or its tyrosine kinase activity. […]

human BVR = assay: BVR autophosphorylation; details: pH 8.4, 30 mM MnCl2, 2 h at 30° C.
Experimental: In FIG. 9A, effect of tyrosine mutations of BVR on its autophosphorylation is shown. Human wtBVR and BVR with mutations in tyrosine were used in the experiment to determine autophosphorylation of BVR. The reactions were performed as described in the Examples. FIG. 9B is a graph showing that BVR tyrosine kinase activity was checked by incubating 5 μg purified BVR with 5 μg Raytide in 50 μl kinase buffer containing 10 μM labeled ATP for 2 h at 30° C. The aliquots of the reaction were transferred onto P81 Whatman filters and radioactivity due to phosphorylation was measured using a scintillation counter.
FIGS. 10A-B illustrate that autophosphorylation of BVR is an Mn^+2 dependant kinase reaction. […] The effects of different metal ions (30 mM MnCl2, 20 mM MgCl2, 20 mM CaCl2, 20 mM Zn acetate) and their combinations were analyzed as indicated in the text. […] Phosphorylation of wtBVR by IRK in the presence of tyrosine kinase inhibitor genestein (200 μM); DMSO was used as the vehicle for genestein and was included in the control reaction mixture. The reactions were carried out in HEPES buffer (pH 8.0) in the presence of 20 mM MgCl2 as described in the Examples.
as §1, with “To measure kinase activity, GST-BVR (5 μg) was incubated in 5 μl kinase buffer containing 50 mM HEPES buffer (pH 8.4), 20 mM MgCl2, 30 mM MnCl2, 1 mM DTT and 10 μM ATP labeled with 10 μCi [γ-^32P]-ATP in the presence of 5 μg substrates: IRS-1 or Raytide or poly glu/tyr (4:1) for 2 h at 30° C.” left out

Molecule: O=C(O)CN(CCN(CC(=O)O)CC(=O)O)CC(=O)O [EDTA, reference compound]
- phosphorylation of BVR by IRK in presence of EDTA ([1]; 50 mM EDTA (pH 8.0), 30° C., 2 h): abolished phosphorylation of BVR by IRK

Molecule: Arg-Thr-Glu-Ser^307-Ile-Thr-Ala-Thr-Ser^312-Pro-Ala-Ser^315-Met-Val-Gly-Gly-Lys-Pro (RTESITATSPASMVGGKP; Biliverdin reductase peptide) [second IRS-1 peptide (#2), IRS-1 peptide containing S^307, S^312, and S^315]
- phosphorylation of IRS-1 peptide by BVR (BVR): 1198±230 cpm

Molecule: O=c1c(-c2ccc(O)cc2)coc2cc(O)cc(O)c12 [Genestein, reference compound]
- BVR phosphorylation mediated by IRK in presence of PTK inhibitor ([1]; genestein 200 μM, HEPES pH 8.0, 20 mM MgCl2): significantly inhibited BVR phosphorylation mediated by IRK

Molecule: Lys-Lys-His-Ala-Asp-Asp-Gly-Ala-Met-Pro-Met-Ser^312-Pro-Gly-Val-Ala (KKHADDGAMPMSPGVA; Biliverdin reductase peptide) [mutant IRS-1 peptide (#1), mutant IRS-1 peptide without tyrosine, only S^616 maintained]
- phosphorylation of IRS-1 peptide by BVR (BVR): 1049±78 cpm

B1: Y^228: human BVR point mutant NRYLS to NRFLS (protein, UniProt P53004 3-296, looked up, variant Y228F)
Biliverdin reductase A: T2 sequence (P53004 3-296 A154S/G155D/E160D) with S152A, D153G, D158E, Y226F
- autophosphorylation of BVR (mutants) (human BVR): did not result in significant changes in autophosphorylation of BVR
- reduction of extent of BVR phosphorylation by IRK compared with wtBVR [1]: 40%

B2: Y^198 plus Y^228: human BVR double mutant DQFMK and NRFLS (protein, UniProt P53004 3-296, looked up, variant Y198F Y228F)
Biliverdin reductase A: T2 sequence (P53004 3-296 A154S/G155D/E160D) with S152A, D153G, D158E, Y196F, Y226F
- BVR phosphorylation by IRK (mutant as substrate) [1]: little or no phosphorylation was detected

B3: Y^198 plus Y^291: human BVR double mutant DQFMK and QKFCC (protein, UniProt P53004 3-296, looked up, variant Y198F Y291F)
Biliverdin reductase A: T2 sequence (P53004 3-296 A154S/G155D/E160D) with S152A, D153G, D158E, Y196F, Y289F
- BVR phosphorylation by IRK (mutant as substrate) [1]: little or no phosphorylation was detected

B4: Y^291: human BVR point mutant QKYCC to QKFCC (protein, UniProt P53004 3-296, looked up, variant Y291F)
Biliverdin reductase A: T2 sequence (P53004 3-296 A154S/G155D/E160D) with S152A, D153G, D158E, Y289F
- autophosphorylation of BVR (mutants) (human BVR): did not result in significant changes in autophosphorylation of BVR
- reduction of extent of BVR phosphorylation by IRK compared with wtBVR [1]: 49%
